Among the targets are CCR7 A118S (human) (UniProt P32248); CCR7 E193A (human) (UniProt P32248); CCR7 E205A (human) (UniProt P32248); CCR7 F107A (human) (UniProt P32248); CCR7 F133A (human) (UniProt P32248); CCR7 K137A (human) (UniProt P32248); CCR7 K50A (human) (UniProt P32248); CCR7 K57A (human) (UniProt P32248); CCR7 N305A (human) (UniProt P32248); CCR7 S117A (human) (UniProt P32248); CCR7 Y308A (human) (UniProt P32248); CCR7 Y65A (human) (UniProt P32248).

The target of experiment [1] is CCR7 L61A (human) (UniProt P32248).
The target of experiment [2] is CCR7 R209A (human) (UniProt P32248).
Experiment [3] deals with CCR7 R54A (human) (UniProt P32248).
Experiment [4] addresses CCR7 W114A (human) (UniProt P32248).
Experiment [5] concerns the target CCR7 L61A (human) (UniProt P32248). The source holds these as a separate data set.
For experiment [6], the target named is CCR7 R209A (human) (UniProt P32248). The source holds these as a separate data set.
Experiment [7] concerns the target CCR7 R54A (human) (UniProt P32248). The source holds these as a separate data set.
In experiment [8] the target is CCR7 W114A (human) (UniProt P32248). The source holds these as a separate data set.
The target in experiment [9] is human CCR7 wild type (human) (UniProt P32248).
For experiment [10] the target is unchanged. This is another data set of the same source.
Experiment [11] has the same target. This is another data set of the same source.
Experiment [12] concerns the target CCR7 R209A (human) (UniProt P32248). This is another data set of the same source.

Read-outs that look alike come from different tables or passages of the source.

As for “human chemokine CCL19 (from UniProt Q99731 22-98) (ligand)”, the G protein signaling (BRET cAMP Camyel sensor, transfected CHO-k1 cells): -logEC50 (M) of CCL19 with CCR7 A118S (human) was 9.7 -logEC50 (M); with CCR7 E193A (human) it was 9.6 -logEC50 (M); with CCR7 E205A (human), 9.2 -logEC50 (M); in the experiment with CCR7 F107A (human), 8.9 -logEC50 (M); in the experiment with CCR7 F133A (human), 8.7 -logEC50 (M); with CCR7 K137A (human) it was 9.2 -logEC50 (M). The G protein signaling (BRET cAMP Camyel sensor, transfected CHO-k1 cells): -logEC50 (M) of CCL19 was 8.5 -logEC50 (M) in the experiment with CCR7 K50A (human); 9.2 -logEC50 (M) in the experiment with CCR7 K57A (human); 8.9 -logEC50 (M) with CCR7 L61A (human) [1]; 8.6 -logEC50 (M) with CCR7 N305A (human); 8.5 -logEC50 (M) with CCR7 R209A (human) [2]; 7.1 -logEC50 (M) with CCR7 R54A (human) [3]. For the same molecule, the G protein signaling (BRET cAMP Camyel sensor, transfected CHO-k1 cells): -logEC50 (M) of CCL19 was 9.5 -logEC50 (M) with CCR7 S117A (human), 8 -logEC50 (M) with CCR7 W114A (human) [4], 9.1 -logEC50 (M) in the experiment with CCR7 Y308A (human) and 9 -logEC50 (M) in the experiment with CCR7 Y65A (human). The G protein signaling (BRET cAMP Camyel sensor, transfected CHO-k1 cells): FMut, fold change of CCL19 potency compared to WT CCR7 is 2 fold in the experiment with CCR7 A118S (human); 3 fold in the experiment with CCR7 E193A (human); 3 fold with CCR7 E205A (human); 2 fold in the experiment with CCR7 F107A (human); 1 fold in the experiment with CCR7 F133A (human); 3 fold with CCR7 K137A (human). Moreover, the G protein signaling (BRET cAMP Camyel sensor, transfected CHO-k1 cells): FMut, fold change of CCL19 potency compared to WT CCR7 in the experiment with CCR7 K50A (human) was found to be 13 fold; in the experiment with CCR7 K57A (human), 2 fold; in the experiment with CCR7 L61A (human) [1] it was 3 fold; in the experiment with CCR7 N305A (human), 4 fold; with CCR7 R209A (human) [2], 8 fold; in the experiment with CCR7 R54A (human) [3], 100 fold. Moreover, the G protein signaling (BRET cAMP Camyel sensor, transfected CHO-k1 cells): FMut, fold change of CCL19 potency compared to WT CCR7 with CCR7 S117A (human) was found to be 1 fold; with CCR7 W114A (human) [4], 13 fold; with CCR7 Y308A (human), 2 fold; with CCR7 Y65A (human) it was 2 fold. In addition, the Transwell migration of stably transfected 300–19 pre-B cells: % specific migration at 10 nM CCL19 with CCR7 L61A (human) [5] is 7.5%; with CCR7 R209A (human) [6], 5%; in the experiment with CCR7 R54A (human) [7], -0.1%; with CCR7 W114A (human) [8], 1%; in experiment [9], 11.6%. Also, the G protein signaling (BRET cAMP Camyel sensor, CHO-k1 cells transfected with CCR7): logEC50 in experiment [10] was -9.4 logEC50 (M). The β-arrestin-2 recruitment (bystander BRET, CHO-k1 cells transfected with CCR7): logEC50 in experiment [10] is -7.9 logEC50 (M). The molecule also had a G protein signaling (BRET cAMP Camyel sensor, CHO-k1 cells transfected with CCR7): signal at 100 nM chemokine, normalized to CCL19 in experiment [11] of 92%. In addition, in the experiment with CCR7 R209A (human) [12], the Transwell migration of stably transfected 300–19 pre-B cells: activity at 10 nM CCL19 relative to WT CCR7 was 42 % of WT.
“human chemokine CCL21 (from UniProt O00585 24-134) (ligand)”: the G protein signaling (BRET cAMP Camyel sensor, transfected CHO-k1 cells): efficacy at 100 nM CCL21, normalized to WT CCR7 with CCR7 A118S (human) was 67 % of WT; in the experiment with CCR7 E193A (human) it was 45 % of WT; with CCR7 E205A (human) it was 48 % of WT; in the experiment with CCR7 F107A (human), 76 % of WT; with CCR7 F133A (human) it was 27 % of WT; with CCR7 K137A (human) it was 43 % of WT. Besides, the G protein signaling (BRET cAMP Camyel sensor, transfected CHO-k1 cells): efficacy at 100 nM CCL21, normalized to WT CCR7 with CCR7 K57A (human) was 99 % of WT; with CCR7 L61A (human) [1], 44 % of WT; with CCR7 N305A (human), 53 % of WT; with CCR7 R209A (human) [2], 132 % of WT; with CCR7 S117A (human), 68 % of WT; in the experiment with CCR7 W114A (human) [4], 32 % of WT. Moreover, the results for the G protein signaling (BRET cAMP Camyel sensor, transfected CHO-k1 cells): efficacy at 100 nM CCL21, normalized to WT CCR7 in the experiment with CCR7 Y308A (human) and in the experiment with CCR7 Y65A (human) were 38 % of WT and 44 % of WT, respectively. In addition, the Transwell migration of stably transfected 300–19 pre-B cells: % specific migration at 10 nM CCL21 with CCR7 L61A (human) [5] came out at 4%; with CCR7 R209A (human) [6], 10.6%; with CCR7 R54A (human) [7], 0.3%; with CCR7 W114A (human) [8], 0.6%; in [9] it was 5.1%. Besides, the Transwell migration of stably transfected 300–19 pre-B cells: activity at 10 nM CCL21 relative to WT CCR7 in the experiment with CCR7 R209A (human) [12] is 2.5 fold.

B1: CCL19^CCL21N-term chimera (ligand)
chain: SDGGAQDCCLKYSQRKIPGYIVRNFHYLLIKDGCRVPAVVFTTLRGRQLCAPPDQPWVERIIQRLQRTSAKMKRRSS
In the case of B1, in experiment [11], the G protein signaling (BRET cAMP Camyel sensor, CHO-k1 cells transfected with CCR7): logEC50 is -8.9 logEC50 (M) and the G protein signaling (BRET cAMP Camyel sensor, CHO-k1 cells transfected with CCR7): signal at 100 nM chemokine, normalized to CCL19 was found to be 90%.

The record behind these values is PMC6753178.
